Results as given in US20220251222A1, “IL-6Ralpha/IL-8R BISPECIFIC BINDING AGENTS FOR INHIBITING CANCER CELL MIGRATION” (The Johns Hopkins University, priority 2019, published 2022).

Tests used:
IL-6Rα = target: T1, IL-6Rα (Homo sapiens, UniProt P08887); assay: Cell surface binding on IL-6Rα+/IL-8R− HEK 293T cells (flow cytometry); settings: 2 hr at 4° C.
T1 construct: expressed in transfected cells; host or cells: HEK 293T, lentiviral transduction (pCDH backbone)
T1 sequence (P08887 20-468): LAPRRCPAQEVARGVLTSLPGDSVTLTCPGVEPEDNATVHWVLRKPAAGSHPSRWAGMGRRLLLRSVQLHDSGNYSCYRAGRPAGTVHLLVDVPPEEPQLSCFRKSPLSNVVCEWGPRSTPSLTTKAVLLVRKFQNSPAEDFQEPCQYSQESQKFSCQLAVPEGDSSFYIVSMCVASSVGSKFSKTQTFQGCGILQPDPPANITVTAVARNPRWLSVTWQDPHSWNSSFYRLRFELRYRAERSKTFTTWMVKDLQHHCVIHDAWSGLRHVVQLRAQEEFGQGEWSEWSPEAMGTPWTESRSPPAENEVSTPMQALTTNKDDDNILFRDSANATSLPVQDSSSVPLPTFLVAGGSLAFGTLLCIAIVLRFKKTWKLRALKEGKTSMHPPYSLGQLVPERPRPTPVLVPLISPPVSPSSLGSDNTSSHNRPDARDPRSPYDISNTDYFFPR
Description: GeneJuice (Sigma Aldrich) was used as the transfection reagent.
Mean fluorescence intensity (MFI) of unstimulated cells was subtracted.

IL-8 binding to IL-8R = target: T2, IL-8 binding to IL-8R (Homo sapiens, UniProt P25025); assay: IL-8 cell surface binding inhibition on IL-6Rα−/IL-8R+ HEK 293T cells; settings: His-tagged IL-8 400 nM
T2 construct: expressed in transfected cells; host or cells: HEK 293T, lentiviral transduction (IL-6Rα−/IL-8R+)
T2 sequence (P25025 1-360): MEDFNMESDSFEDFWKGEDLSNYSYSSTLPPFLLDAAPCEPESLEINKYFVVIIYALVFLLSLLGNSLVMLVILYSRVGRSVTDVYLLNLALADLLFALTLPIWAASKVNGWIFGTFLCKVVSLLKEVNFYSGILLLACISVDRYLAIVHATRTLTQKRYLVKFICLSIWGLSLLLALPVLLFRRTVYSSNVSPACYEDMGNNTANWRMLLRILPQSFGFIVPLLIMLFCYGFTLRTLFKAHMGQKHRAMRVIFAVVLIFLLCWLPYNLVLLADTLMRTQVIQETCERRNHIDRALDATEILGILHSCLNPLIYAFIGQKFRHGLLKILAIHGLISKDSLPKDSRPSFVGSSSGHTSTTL
Procedure: Cells were then washed and incubated with 1:200 dilution of Alexa Fluor 647-conjugated streptavidin (Fisher Scientific, cat #: S21374) in PBSA for 15 min at 4° C. […] Curves were fitted to a first-order logistic model and IC50 values were calculated using GraphPad Prism data analysis software. Mean fluorescence intensity (MFI) of unstimulated cells was subtracted. […]

tocilizumab
KD, binding to IL-6Rα on cells (IL-6Rα): only recognized IL-6Rα^+ cells | IC50, competition with IL-8 binding to IL-8R (IL-8 binding to IL-8R): did not exert any inhibitory effects
